Like-named read-outs stand apart in the source and are kept apart here.
Legend:
[1] = in vivo; details: female, NMRI-Foxn1nu/Foxn1nu nude, mouse, iv, total radioactivity
[2] = tested on: BON‐SSTR2 cells; test: Toxicity test, metabolic activity (AlamarBlue); format: cell-based, human; details: 96 h treatment, up to a concentration of 10 μM, quadruplicates, n=2 (Figure S2)
Method: (§1) Toxicity tests: BON‐SSTR2 cells were seeded in quadruplicates in 96 well plates at a density of 5,000 cells per well and grown overnight. […] Metabolic activity and cell number were determined after another 96 h. For this, 100 μL medium containing AlamarBlue™ redox indicator (ThermoFisher) were added on top of each well, incubated for 3–4 h and the resulting fluorescence was measured using an EnVision Multilabel Plate Reader (PerkinElmer). Afterwards, the supernatant was removed; cells were fixated with 4 % v/v formaldehyde for 10 min and stained with 1 μg/mL DAPI in PBS/0.1 % v/v Triton for another 10 min. Four fields per well were imaged using an IN Cell Analyzer 1000 (GE Healthcare) with a 4x objective and nuclei were counted by Investigator software (GE Healthcare). All values were normalized to the control treated with vehicle and analyzed using GraphPad Prism 5.04.

[3] = tested on: BON‐SSTR2 cells; test: Toxicity test, cell number (DAPI nuclei counting); format: cell-based, human; details: 96 h treatment, up to a concentration of 10 μM, quadruplicates, n=2 (Figure S2)
Method: as §1

[4] = molecular target: T1, ratSSTR2‐GFP fusion protein (Rattus norvegicus, UniProt P30680); test: Endocytosis / receptor internalization assay in RIN1038 cells; format: cell-based
T1 construct: expressed in transfected cells
T1 sequence (P30680 whole entry, the tested form may be a part): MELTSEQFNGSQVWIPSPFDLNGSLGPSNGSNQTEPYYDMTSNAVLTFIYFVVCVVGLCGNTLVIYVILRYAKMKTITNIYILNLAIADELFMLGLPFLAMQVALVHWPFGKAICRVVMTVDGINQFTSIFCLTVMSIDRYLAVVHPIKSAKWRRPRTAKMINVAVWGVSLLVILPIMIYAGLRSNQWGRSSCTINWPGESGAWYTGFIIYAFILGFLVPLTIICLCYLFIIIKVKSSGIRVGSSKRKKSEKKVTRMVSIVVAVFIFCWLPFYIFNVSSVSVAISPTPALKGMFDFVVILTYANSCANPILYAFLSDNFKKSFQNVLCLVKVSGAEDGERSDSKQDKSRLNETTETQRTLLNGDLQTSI
Excerpt: Endocytosis assay: Rat insulinoma RIN1038 cells stably expressing a ratSSTR2‐GFP fusion protein almost exclusively show green cell membrane fluorescence in the resting state while in the presence of a functional agonist, the receptor‐GFP fusion protein is translocated to a perinuclear endocytic vesicle compartment. This shift is readily recognized by inspection of the fluorescent image and can be detected by software‐based quantitation algorithms. […] Mounted cells were imaged using a confocal laser‐scanning microscope (LSM510, Carl Zeiss) with a helium–neon laser at 488 and 543 nm, BP505‐525 and LP560 emission filters and a 63x NeoFluar oil immersion objective. […] For automated microscopy, microscopic fluorescence images were recorded by an IN Cell Analyzer 1000 (GE Healthcare) with 20x magnification at 5 frames per well in a 96 well format. Image processing was performed with In Cell Investigator software (GE Healthcare) applying the provided granularity algorithm. The output of the analysis was indicated as vesicle area/cell and was utilized for calculation of concentration‐response curves resulting in the determination of half‐maximal activity (EC50).

EC50 ([4]; RIN1038-rSSTR2GFP, axis log DOTA-ICC-TATE [M], R square 0.9899, read-out: EC50 internalization as printed in Figure S2 D) | cellular uptake: colocalization of ICC dye signal with internalized GFP‐fused SSTR2 ([4]; RIN1038 cells overexpressing SSTR2‐GFP, 1 μM conjugate, 30 min, 37 °C, confocal microscopy) | EC50 ([4]; RIN1038 ratSSTR2‐GFP cells, eleven concentrations 3 pM–300 nM, 30 min, 37 °C, quadruplicates, vesicle area/cell, read-out: EC50 of SSTR2‐GFP fusion protein internalization) | Compound | tissue uptake at 1 h ([1]; ex vivo biodistribution uptake in kidneys) | tissue uptake at 1 h ([1]; ex vivo biodistribution uptake in liver) | inhibition of metabolism (AlamarBlue fluorescence, % control) [2] | inhibition of proliferation (cell count, DAPI, % control) [3]
 |  |  | C[C@@H](O)[C@H](NC(=O)[C@@H]1CSSC[C@H](NC(=O)[C@@H](Cc2ccccc2)NC(=O)c2ccc3c(c2)C(C)(C)/C(=C/C=C/C2=[N+](C)c4ccc(CNC(=O)CNC(=O)CN5CCN(CC(=O)O)CCN(CC(=O)O)CCN(CC(=O)O)CC5)cc4C2(C)C)N3CCCCS(=O)(=O)[O-])C(=O)N[C@@H](Cc2ccc(O)cc2)C(=O)N[C@H](Cc2c[nH]c3ccccc23)C(=O)N[C@@H](CCCCN)C(=O)N[C@@H]([C@@H](C)O)C(=O)N1)C(=O)O [^68Ga‐DOTA‐ICC‐TATE, metal not drawn] | ~30 %ID/g | 5 %ID/g |  | 
4.21e-10 M | clearly colocalized | 4.2e-10 M | C[C@@H](O)[C@H](NC(=O)[C@@H]1CSSC[C@H](NC(=O)[C@@H](Cc2ccccc2)NC(=O)c2ccc3c(c2)C(C)(C)/C(=C/C=C/C2=[N+](C)c4ccc(CNC(=O)CNC(=O)CN5CCN(CC(=O)O)CCN(CC(=O)O)CCN(CC(=O)O)CC5)cc4C2(C)C)N3CCCCS(=O)(=O)[O-])C(=O)N[C@@H](Cc2ccc(O)cc2)C(=O)N[C@H](Cc2c[nH]c3ccccc23)C(=O)N[C@@H](CCCCN)C(=O)N[C@@H]([C@@H](C)O)C(=O)N1)C(=O)O [DOTA‐ICC‐TATE] |  |  | does not inhibit | does not inhibit

Reference: publication PMC8048842, “A Cyanine‐Bridged Somatostatin Hybrid Probe for Multimodal SSTR2 Imaging in Vitro and in Vivo: Synthesis and Evaluation” (Chembiochem, 2021)
